How the values were obtained:
GRG31 EPSP synthase [1] = test: Extract prescreens of library clones at a few glyphosate and PEP concentrations; format: biochemical; conditions: extracts; for activity in glyphosate prescreen: 0, 1, and 2 mM glyphosate, among 31 resistant clones
Description: Library 1 was cloned into pAX3625 and 130,000 clones were plated onto plates containing 50 mM glyphosate. […] Extracts were prepared and assessed for glyphosate resistance by assaying activity in the presence of a small number of glyphosate concentrations (0, 1, and 2 mM glyphosate).
Extracts from these six clones were assayed for activity at a range of PEP concentrations (0, 20, 50, and 100 μM PEP).
One hundred and fifteen thousand (115,000) clones were plated onto plates containing 50 mM glyphosate and 384 glyphosate resistant clones were picked for sequencing. […] A Ki assessment of the unique clones was carried out by testing activity at 0 and 0.2 mM glyphosate. […] An assessment of the Km of protein encoded by these nine clones was performed by comparing activity at 0, 20, and 50 μM PEP.

GRG31 EPSP synthase [2] = test: Kinetic analysis of GRG31 variants (Ki for glyphosate, Km for PEP, Vmax); format: biochemical; set-up: Vmax: unit not given here; conditions: for Ki: Ki for glyphosate, calculated from plot of Km(app) vs. glyphosate concentration; for Km: Km for PEP; for Vmax: unit not given
Description: GRG31 variants L3P2b11, L3P2c11 and L4e11, and L5e3 were characterized by enzymatic assays as described herein, and compared to the native GRG31 enzyme. For each enzyme the apparent Km (Km(app)) was determined at each of several glyphosate concentrations, and a plot of Km(app) vs. glyphosate concentration was used to calculate the Ki for each enzyme. The thermostability for each enzyme was assessed by incubating the enzyme at 37° C. for 16 hours, and then quantifying the enzymatic activity remaining (as Vmax) vs. control enzyme that was incubated at 4° C.

| Molecule | activity in glyphosate prescreen (GRG31 EPSP synthase [1]) | Ki (GRG31 EPSP synthase [2]) [µM] | Km (GRG31 EPSP synthase [2]) [µM] | Vmax (GRG31 EPSP synthase [2]) | also measured |
| --- | --- | --- | --- | --- | --- |
| GRG31pm3a11: GRG31 Q-loop library 1 variant, SEQ ID NO:7 (protein, GRG31 variant (clone GRG31pm3a11)) MNQQVITLTHPSKKIQGTVQLTGSKSESNRALIIQSLSKGQVEIANLSEAADTVTLNRVLQIASDPKPGFNTIDCGNAGTSVRFLTGFLNLVKGNFILTGTERMQQRPIGILVDAMKEIGADIHYDKKVGYPPLKIEGGLFQEKDRVKIKGNISSQYISALLLIAPALKKGLTLEIEGELTSRPYVSMTLDMLKSVGIQHEWKNNAIKIAPQAFEKQTIYVEPDWSAASYWYAIAALADANASIVLPGLRKNSLQGDIAIISIMEHFGVQSSFESDGLHLNKKVIGSDVSLFNFKECPDLAQTVVVVAAALKRDVSFTGLETLKIKETDRIAALQKEIAKFGAELIEDGDTYHLKTAQVYQPEEVTFDTYEDHRMAMAFAPLALVFDQIKIAEPQVVEKSYPDFWNHLQAQAFVIE | best activity | – | – | – | activity at low PEP concentrations (GRG31 EPSP synthase [1]; 0, 20, 50, and 100 μM PEP, among six clones): best activity at low PEP concentrations |
| L4e11: GRG31 variant I75→C; A78→S; Y88→H, SEQ ID NO:16 (protein, GRG31 variant (clone 4e11)) MNQQVITLTHPSKKIQGTVQLTGSKSESNRALIIQSLSKGQVEIANLSEAADTVTLNRVLQIASDPKPGFNTIDCGPSGTAMRFLTAHLNLVKGNFILTGTERMQQRPIGILVDAMKEIGADIHYDKKVGYPPLKIEGGLFQEKDRVKIKGNISSQYISALLLIAPALKKGLTLEIEGELTSRPYVSMTLDMLKSVGIQHEWKNNAIKIAPQAFEKQTIYVEPDWSAASYWYAIAALADANASIVLPGLRKNSLQGDIAIISIMEHFGVQSSFESDGLHLNKKVIGSDVSLFNFKECPDLAQTVVVVAAALKRDVSFTGLETLKIKETDRIAALQKEIAKFGAELIEDGDTYHLKTAQVYQPEEVTFDTYEDHRMAMAFAPLALVFDQIKIAEPQVVEKSYPDFWNHLQAQAFVIE | – | 389 | 12.4 | 3.5 | improvement in Ki for glyphosate relative to GRG31 (GRG31 EPSP synthase [2]; relative to GRG31, in words): improved |
| L3P2b11 + 6b2: GRG31 variant P77→Q; A81→S; M82→L; Y88→F; N95→S, A206→V, SEQ ID NO:26 (protein, GRG31 variant (L3P2b11+6b2)) MNQQVITLTHPSKKIQGTVQLTGSKSESNRALIIQSLSKGQVEIANLSEAADTVTLNRVLQIASDPKPGFNTIDIGQAGTSLRFLTAFLNLVKGSFILTGTERMQQRPIGILVDAMKEIGADIHYDKKVGYPPLKIEGGLFQEKDRVKIKGNISSQYISALLLIAPALKKGLTLEIEGELTSRPYVSMTLDMLKSVGIQHEWKNNVIKIAPQAFEKQTIYVEPDWSAASYWYAIAALADANASIVLPGLRKNSLQGDIAIISIMEHFGVQSSFESDGLHLNKKVIGSDVSLFNFKECPDLAQTVVVVAAALKRDVSFTGLETLKIKETDRIAALQKEIAKFGAELIEDGDTYHLKTAQVYQPEEVTFDTYEDHRMAMAFAPLALVFDQIKIAEPQVVEKSYPDFWNHLQAQAFVIE | – | 628 | 8 | 0.59 | – |
| GRG31pm3a8: GRG31 Q-loop library 1 variant, SEQ ID NO:9 (protein, GRG31 variant (clone GRG31pm3a8)) MNQQVITLTHPSKKIQGTVQLTGSKSESNRALIIQSLSKGQVEIANLSEAADTVTLNRVLQIASDPKPGFNTIDCGPAGTGVRFLTAFLNLVKGNFILTGTERMQQRPIGILVDAMKEIGADIHYDKKVGYPPLKIEGGLFQEKDRVKIKGNISSQYISALLLIAPALKKGLTLEIEGELTSRPYVSMTLDMLKSVGIQHEWKNNAIKIAPQAFEKQTIYVEPDWSAASYWYAIAALADANASIVLPGLRKNSLQGDIAIISIMEHFGVQSSFESDGLHLNKKVIGSDVSLFNFKECPDLAQTVVVVAAALKRDVSFTGLETLKIKETDRIAALQKEIAKFGAELIEDGDTYHLKTAQVYQPEEVTFDTYEDHRMAMAFAPLALVFDQIKIAEPQVVEKSYPDFWNHLQAQAFVIE | best activity | – | – | – | – |
| GRG31pm3b9: GRG31 Q-loop library 1 variant, SEQ ID NO:11 (protein, GRG31 variant (clone GRG31pm3b9)) MNQQVITLTHPSKKIQGTVQLTGSKSESNRALIIQSLSKGQVEIANLSEAADTVTLNRVLQIASDPKPGFNTIDCDAAGTSMRFLAAYLNLVKGNFILTGTERMQQRPIGILVDAMKEIGADIHYDKKVGYPPLKIEGGLFQEKDRVKIKGNISSQYISALLLIAPALKKGLTLEIEGELTSRPYVSMTLDMLKSVGIQHEWKNNAIKIAPQAFEKQTIYVEPDWSAASYWYAIAALADANASIVLPGLRKNSLQGDIAIISIMEHFGVQSSFESDGLHLNKKVIGSDVSLFNFKECPDLAQTVVVVAAALKRDVSFTGLETLKIKETDRIAALQKEIAKFGAELIEDGDTYHLKTAQVYQPEEVTFDTYEDHRMAMAFAPLALVFDQIKIAEPQVVEKSYPDFWNHLQAQAFVIE | best activity | – | – | – | – |
| L3P2b11 + 6e7: GRG31 variant P77→Q; A81→S; M82→L; Y88→F; E215→K, SEQ ID NO:22 (protein, GRG31 variant (L3P2b11+6e)) MNQQVITLTHPSKKIQGTVQLTGSKSESNRALIIQSLSKGQVEIANLSEAADTVTLNRVLQIASDPKPGFNTIDIGQAGTSLRFLTAFLNLVKGNFILTGTERMQQRPIGILVDAMKEIGADIHYDKKVGYPPLKIEGGLFQEKDRVKIKGNISSQYISALLLIAPALKKGLTLEIEGELTSRPYVSMTLDMLKSVGIQHEWKNNAIKIAPQAFKKQTIYVEPDWSAASYWYAIAALADANASIVLPGLRKNSLQGDIAIISIMEHFGVQSSFESDGLHLNKKVIGSDVSLFNFKECPDLAQTVVVVAAALKRDVSFTGLETLKIKETDRIAALQKEIAKFGAELIEDGDTYHLKTAQVYQPEEVTFDTYEDHRMAMAFAPLALVFDQIKIAEPQVVEKSYPDFWNHLQAQAFVIE | – | 1010 | 10.3 | 0.86 | – |
| L3P2b11 + triple EK: GRG31 variant P77→Q; A81→S; M82→L; Y88→F; N95→S, A206→V; E215→K, SEQ ID NO:24 (protein, GRG31 variant (L3P2b11+triple EK)) MNQQVITLTHPSKKIQGTVQLTGSKSESNRALIIQSLSKGQVEIANLSEAADTVTLNRVLQIASDPKPGFNTIDIGQAGTSLRFLTAFLNLVKGSFILTGTERMQQRPIGILVDAMKEIGADIHYDKKVGYPPLKIEGGLFQEKDRVKIKGNISSQYISALLLIAPALKKGLTLEIEGELTSRPYVSMTLDMLKSVGIQHEWKNNVIKIAPQAFKKQTIYVEPDWSAASYWYAIAALADANASIVLPGLRKNSLQGDIAIISIMEHFGVQSSFESDGLHLNKKVIGSDVSLFNFKECPDLAQTVVVVAAALKRDVSFTGLETLKIKETDRIAALQKEIAKFGAELIEDGDTYHLKTAQVYQPEEVTFDTYEDHRMAMAFAPLALVFDQIKIAEPQVVEKSYPDFWNHLQAQAFVIE | – | 606 | 12.3 | 0.72 | – |
| L3P2c11 + 6e7: GRG31 variant Y88→F; E215→K, SEQ ID NO:21 (protein, GRG31 variant (L3P2c11+6e7)) MNQQVITLTHPSKKIQGTVQLTGSKSESNRALIIQSLSKGQVEIANLSEAADTVTLNRVLQIASDPKPGFNTIDIGPAGTAMRFLTAFLNLVKGNFILTGTERMQQRPIGILVDAMKEIGADIHYDKKVGYPPLKIEGGLFQEKDRVKIKGNISSQYISALLLIAPALKKGLTLEIEGELTSRPYVSMTLDMLKSVGIQHEWKNNAIKIAPQAFKKQTIYVEPDWSAASYWYAIAALADANASIVLPGLRKNSLQGDIAIISIMEHFGVQSSFESDGLHLNKKVIGSDVSLFNFKECPDLAQTVVVVAAALKRDVSFTGLETLKIKETDRIAALQKEIAKFGAELIEDGDTYHLKTAQVYQPEEVTFDTYEDHRMAMAFAPLALVFDQIKIAEPQVVEKSYPDFWNHLQAQAFVIE | – | 416 | 8.6 | 23.5 | Vmax improvement over the GRG31(L3P2c11) protein (GRG31 EPSP synthase [2]; relative to GRG31(L3P2c11), in words): about four to five-fold; Vmax relative to GRG31 (GRG31 EPSP synthase [2]; relative to GRG31, in words): approximately equal to that of GRG31; improvement in Ki for glyphosate relative to GRG31 (GRG31 EPSP synthase [2]; relative to GRG31, in words): more than four-fold; improvement in Km for PEP relative to GRG31 (GRG31 EPSP synthase [2]; relative to GRG31, in words): approximately two-fold |
| GRG31pm3a6: GRG31 Q-loop library 1 variant, SEQ ID NO:8 (protein, GRG31 variant (clone GRG31pm3a6)) MNQQVITLTHPSKKIQGTVQLTGSKSESNRALIIQSLSKGQVEIANLSEAADTVTLNRVLQIASDPKPGFNTIDCGNAGTSMRFLTAVLNLVKGNFILTGTERMQQRPIGILVDAMKEIGADIHYDKKVGYPPLKIEGGLFQEKDRVKIKGNISSQYISALLLIAPALKKGLTLEIEGELTSRPYVSMTLDMLKSVGIQHEWKNNAIKIAPQAFEKQTIYVEPDWSAASYWYAIAALADANASIVLPGLRKNSLQGDIAIISIMEHFGVQSSFESDGLHLNKKVIGSDVSLFNFKECPDLAQTVVVVAAALKRDVSFTGLETLKIKETDRIAALQKEIAKFGAELIEDGDTYHLKTAQVYQPEEVTFDTYEDHRMAMAFAPLALVFDQIKIAEPQVVEKSYPDFWNHLQAQAFVIE | best activity | – | – | – | – |

Source: patent US8247535B2, “Directed evolution of GRG31 EPSP synthase enzyme” (Athenix Corp., priority 2008, dated 2012)
